Laboratory results: paper PMC3028594 (DNA repair, 2010)

B1: Bacillus subtilis β sliding clamp (β subunit of DNA polymerase III) (natural protein, UniProt P05649 1-378, looked up)
chain: MKFTIQKDRLVESVQDVLKAVSSRTTIPILTGIKIVASDDGVSFTGSDSDISIESFIPKEEGDKEIVTIEQPGSIVLQARFFSEIVKKLPMATVEIEVQNQYLTIIRSGKAEFNLNGLDADEYPHLPQIEEHHAIQIPTDLLKNLIRQTVFAVSTSETRPILTGVNWKVEQSELLCTATDSHRLALRKAKLDIPEDRSYNVVIPGKSLTELSKILDDNQELVDIVITETQVLFKAKNVLFFSRLLDGNYPDTTSLIPQDSKTEIIVNTKEFLQAIDRASLLAREGRNNVVKLSAKPAESIEISSNSPEIGKVVEAIVADQIEGEELNISFSPKYMLDALKVLEGAEIRVSFTGAMRPFLIRTPNDETIVQLILPVRTY
B2: regulatory subdomain of Bacillus subtilis MutL (domain or fragment, UniProt P49850 471-574, looked up)
chain: KYEYFREKVGEVEPEVQEMIVPLTFHYSTNEALIIEQHKQELESVGVFLESFGSNSYIVRCHPAWFPKGEEAELIEEIIQQVLDSKNIDIKKLREEAAIMMSCK
B3: regulatory subdomain of Escherichia coli MutL (domain or fragment, UniProt P23367 466-569, looked up)
chain: WLRQAQLTPGEAPVCAQPLLIPLRLKVSAEEKSALEKAQSALAELGIDFQSDAQHVTIRAVPLPLRQQNLQILIPELIGYLAKQSVFEPGNIAQWIARNLMSEH
B4: C-terminal domain of Escherichia coli MutL (domain or fragment, UniProt P23367 432-615, looked up)
chain: SQSFGRVLTIVHSDCALLERDGNISLLSLPVAERWLRQAQLTPGEAPVCAQPLLIPLRLKVSAEEKSALEKAQSALAELGIDFQSDAQHVTIRAVPLPLRQQNLQILIPELIGYLAKQSVFEPGNIAQWIARNLMSEHAQWSMAQAITLLADVERLCPQLVKTPPGGLLQSVDLHPAIKALKDE
B5: C-terminal (endonuclease) domain of Bacillus subtilis MutL (domain or fragment, UniProt P49850 433-627, looked up)
chain: SDRVPIMYPIGQMHGTYILAQNENGLYIIDQHAAQERIKYEYFREKVGEVEPEVQEMIVPLTFHYSTNEALIIEQHKQELESVGVFLESFGSNSYIVRCHPAWFPKGEEAELIEEIIQQVLDSKNIDIKKLREEAAIMMSCKGSIKANRHLRNDEIKALLDDLRSTSDPFTCPHGRPIIIHHSTYEMEKMFKRVM

Assays:
Assay in all cases: cross-linking
cross-linking = target: the molecule itself
[1] = target: B1
[2] = target: Escherichia coli β sliding clamp (β subunit of DNA polymerase III) (Escherichia coli, UniProt P0A988 1-366)
Sequence of Escherichia coli β sliding clamp (β subunit of DNA polymerase III) (P0A988 whole entry): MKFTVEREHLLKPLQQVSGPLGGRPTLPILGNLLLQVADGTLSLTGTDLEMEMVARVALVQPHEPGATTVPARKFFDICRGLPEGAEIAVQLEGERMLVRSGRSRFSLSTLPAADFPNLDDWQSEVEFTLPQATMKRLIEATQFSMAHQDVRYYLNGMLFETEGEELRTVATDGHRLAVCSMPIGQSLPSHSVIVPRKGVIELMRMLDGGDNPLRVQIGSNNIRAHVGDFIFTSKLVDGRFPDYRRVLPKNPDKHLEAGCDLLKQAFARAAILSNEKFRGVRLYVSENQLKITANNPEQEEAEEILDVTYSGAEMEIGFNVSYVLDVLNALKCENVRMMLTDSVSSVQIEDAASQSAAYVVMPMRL

binding result [1]	binding result [2]	Binder	stoichiometry N (cross-linking)
–	–	B1	2
binds	–	B2	–
–	binds	B3	–
binds	–	B4	≥ 2
–	binds	B5	2
